From patent publication US20220401560A1, “PEPTIDE ENCAPSULATING FERRITIN” (Ajinomoto Co., Inc., priority 2019, published 2022)
No end group written: not given here.

Assays:
ferritin (FTH) [1] = biological target: T1, ferritin (FTH) (Homo sapiens, UniProt P02794); assay: Search for peptides capable of being encapsulated into ferritin by disassembly/reassembly process, LC-MS detection; conditions: encapsulation into ferritin (FTH); three trials
T1 construct: made in house; host or cells: Escherichia coli BL21 (DE3), plasmid pET20-FTH
Description: Peptides capable of being encapsulated into ferritin by disassembly/reassembly process were searched. In the disassembly/reassembly process, 1 mL of a 50 mM glycine hydrochloride buffer (pH 2.3) containing FTH at a final concentration of 5 mg/mL and the peptide at a final concentration of 0.5 mM, was left to stand at room temperature for 15 minutes. Next, 310 μL of a 1 M Tris hydrochloride buffer (pH 9.0) was added for neutralization, and left to stand at room temperature for 3 hours. After the standing, 1.2 mL of a 50 mM Tris hydrochloride buffer (pH 8.0) was added, and centrifuged (at 15,000 rpm for one minute). Thereafter, 2.5 mL of its supernatant was injected into a desalting column PD-10 (Sephadex G-25 filled product, GE Healthcare Inc.) equilibrated with a 50 mM Tris hydrochloride buffer (pH 8) for the elusion with 3.0 mL of a 50 mM Tris hydrochloride buffer (pH 8.0) to separate non-encapsulated peptides and ferritin. A whole amount (3.0 mL) of the resulting solution was concentrated to 0.1 mL by centrifugal ultrafiltration using Vivaspin 20-100K (GE Healthcare Inc.). The operation of adding 10 mL of a 50 mM Tris hydrochloride buffer to the concentrated solution and then concentrating was repeated twice to remove peptides that were not removed by PD-10 to obtain 0.1 mL of a sample solution. For the LC-MS analysis, 50 p1 of a 1 M glycine hydrochloride buffer (pH 2.3) was added to 50 μL of the sample solution and then the resulting solution was left to stand at room temperature for 15 minutes. To the solution, 900 μL of ethanol was added. Next, the resulting solution was stirred vigorously and then centrifuged (at 15,000 rpm for five minutes) for collection of the supernatant. The supernatant was analyzed using LCMS-2020 (Shimadzu Corporation) as LC-MS, Inertsil (Registered trademark) as a column, ODS-3, particle diameter of 2 μm and 2.1 mm×50 mm (GL science). Thereafter, 10 μL of the sample injected into the column was eluded at a flow rate of 0.2 mL/min for 10 minutes such that a mixing ratio of a solution A (0.1% formic acid/99.9% acetonitrile) and a solution B (50% water/50% acetonitrile) is from 95:5 to 95:5.
The encapsulation of the peptide into ferritin was studied by comparing in terms of the amount of the peptide detected by LC/MS between the sample prepared by encapsulating the peptide into ferritin at the disassembly/reassembly process and the sample prepared simply by mixing ferritin with the peptide. For example, ClAc-FHC was eluted at a retention time of 0.8 minute. […] However, the peak was not observed for the sample prepared by simply mixing the peptide with ferritin without performing the disassembly/reassembly process (FIG. 12B). FIG. 13 to FIG. 17 illustrate LC-MS results for FTH in which the peptide was encapsulated at the disassembly/reassembly process.

ferritin (FTH) [2] = biological target: T1, ferritin (FTH); assay: Encapsulation of fluorescent dye-modified peptide into FTH, column chromatography with absorbance at 480 nm and LC-MS
Description: Of a 50 mM glycine hydrochloride buffer (pH 2.3) that contains FTH (chemical formula weight: 509,421) at a final concentration of 5 mg/mL and the peptide at a final concentration of 0.5 mM, 0.5 mL was left to stand at room temperature for 15 minutes. Next, 50 μL of a 1 M Tris hydrochloride buffer (pH 9.0) was added for neutralization, and the resulting solution was left to stand at room temperature for 3 hours. After the standing, the resulting solution was centrifuged (at 15,000 rpm for one minute). Then, the supernatant was collected and the volume was increased up to 3 mL with a 10 mM Tris hydrochloride buffer (pH 8). The resulting solution was injected into the HiPrep 26/60 Sephacryl S-300 HR column (GE Healthcare Inc.) equilibrated with a 10 mM Tris-HCl buffer (pH 8.0) to separate and purify 24-mer FTH by size at a flow rate of 1.3 mL/minute. The purified ferritin was analyzed using a HiPrep 16/60 Sephacryl S-300 HR column (GE Healthcare Inc.) equilibrated with a 10 mM Tris-HCl buffer (pH 8.0) at a flow rate of 0.5 mL/minute and confirmed as the absorbance at 480 nm unobservable from FTH only, at the same position as that of a peak of FTH.
The solution containing the FTH was concentrated to 0.25 mL by centrifugal ultrafiltration using Vivaspin 20-100K (GE Healthcare Inc.). […] For the LC-MS analysis, 50 μL of a 1 M glycine hydrochloride buffer (pH 2.3) was added to 50 μL of the sample solution and then the resulting solution was left to stand at room temperature for 15 minutes. To the solution 900 μL of ethanol was added. Next, the resulting solution was stirred vigorously and then centrifuged (at 15,000 rpm for five minutes) to collect its supernatant. The supernatant was analyzed using LCMS-2020 (Shimadzu Corporation) as LC-MS, inertsil (Registered trademark) ODS-3 with a particle diameter of 2 μm and 2.1 mm×50 mm (GL science) as a column. Into the column, 10 μL of the sample was injected, and eluded at a flow rate of 0.2 mL/min for 10 minutes such that a mixing ratio of a solution A (0.1% formic acid/99.9% acetonitrile) and a solution B (50% water/50% acetonitrile) was from 95:5 to 95:5. The concentration of the contained protein was determined using a protein assay CBB solution (Nacalai Tesque, Inc.) in terms of bovine albumin as a standard. The concentration of the encapsulated peptide was determined based on the absorbance at 480 nm of the fluorescent dye FAM to which PKC-F is modified.
First, the construction of FTH encapsulating two kinds of fluorescent dye-modified peptides [5(6)—FAM-[…] (SEQ ID NO: 10), FAM-SV40, chemical formula weight 1,516, and 5(6)—FAM-[…] […] (SEQ ID NO: 11), FAN-Np, chemical formula weight 384] was attempted. 0.5 mL of a 50 mM glycine hydrochloride buffer (pH 2.3) that contains FTH (chemical formula weight 509,421) at a final concentration of 5 mg/mL and a peptide at a final concentration of 0.5 mM, was left to stand at room temperature for 15 minutes. Next, 50 μL of a 1 M Tris hydrochloride buffer (pH 9.0) was added for neutralization, and the resulting solution was left to stand at room temperature for 3 hours. […] The absorbance at […] was confirmed at the same elusion position as that of ferritin 24-mer, for ferritin that was used for the operation to encapsulate FAM-SV40 therein. […] Next, the peptide amount of FAM-SV40 encapsulated in purified ferritin was quantified based on the 480 nm absorbance and by CBB staining with use of ferritin-amount-albumin as a standard.

SKBR-3 cell = assay: Cell incorporation observed with two-photon excitation fluorescence microscope; format: cell-based, human; conditions: 24 hours, same conditions as FACS test
ferritin (FTL) = biological target: T2, ferritin (FTL) (Homo sapiens, UniProt P02792); assay: Encapsulation of fluorescent dye-modified peptide into FTL, column chromatography with absorbance at 480 nm; conditions: absorbance at 480 nm at the position of the FTL peak
T2 construct: made in house; host or cells: Escherichia coli BL21 (DE3), plasmid pET20-FTL
Description: 0.5 mL of a 50 mM glycine hydrochloride buffer (pH 2.3) that contains FTL (chemical formula weight 480,466) at a final concentration of 5 mg/mL and the peptide at a final concentration of 0.5 mM, was left to stand at room temperature for 15 minutes. Next, 50 μL of a 1 M Tris hydrochloride buffer (pH 9.0) was added for neutralization, and the resulting solution was left to stand at room temperature for 3 hours. After the standing, the resulting solution was centrifuged (at 15,000 rpm for one minute). Then, the supernatant was collected and diluted with a 10 mM Tris hydrochloride buffer (pH 8) up to 3 mL in volume. The resulting solution was injected into the HiPrep 26/60 Sephacryl S-300 HR column (GE Healthcare Inc.) equilibrated with D-PBS (-) (Fujifilm Wako Pure Chemical Corporation) to separate and purify 24-mer FTL by size at a flow rate of 1.3 mL/minute. The purified ferritin was analyzed using a HIPrep 16/60 Sephacryl S-300 HR column (GE Healthcare Inc.) equilibrated with PBS at a flow rate of 0.5 mL/minute.

T1 sequence (P02794 whole entry): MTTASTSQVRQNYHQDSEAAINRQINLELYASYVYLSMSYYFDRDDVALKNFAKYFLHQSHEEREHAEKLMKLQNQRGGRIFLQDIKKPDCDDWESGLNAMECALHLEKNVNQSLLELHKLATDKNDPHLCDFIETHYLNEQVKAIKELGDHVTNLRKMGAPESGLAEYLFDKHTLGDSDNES
T2 sequence (P02792 whole entry): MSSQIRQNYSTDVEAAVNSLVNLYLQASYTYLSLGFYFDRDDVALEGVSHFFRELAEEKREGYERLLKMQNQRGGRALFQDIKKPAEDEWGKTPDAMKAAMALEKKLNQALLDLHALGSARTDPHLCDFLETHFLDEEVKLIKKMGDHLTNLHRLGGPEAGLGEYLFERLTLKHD

5(6)-FAM-RFARKGALRQKNVHEVKN (SEQ ID NO: 9) ({5(6)‑FAM}-RFARKGALRQKNVHEVKN) [PKC-F, fluorescent dye fluorescein (FAM)-modified peptide, linear]
encapsulation (ferritin (FTH) [1]): A (“A” represents peptides with three times of confirmation of encapsulation.)
molecules of peptide encapsulated in one molecule of ferritin on average (ferritin (FTH) [2]; FTH, from molar ratio): 8.5 molecules
encapsulation of peptide in FTH (ferritin (FTH) [2]; absorbance at 480 nm at elution position of 24-mer FTH, LC-MS): encapsulated by the ferritin encapsulation operation without being decomposed
incorporation into cells, fluorescence at the interior of cells (SKBR-3 cell): not confirmed
encapsulation of peptide in FTL (ferritin (FTL)): encapsulated in FTL
